System: H1299 cells
Test: Apoptosis assay (trypan blue / Red-Gal double staining), p73α-dependent
Assay type: cell-based, human
Conditions: H1299, coexpression with HA-p73α, 48 hours (FIG. 25-27)
Method: To detect apoptosis via p73α and IKK overexpression, H1299 cells were seeded at a density of 1.5×10^4 cells/well onto a 6-well tissue culture dish. Next day, the cells were transiently transfected with 50 ng of β-galactosidase expression plasmid and 50 ng of HA-p73α expression plasmid in the presence or absence of varying amounts of IKK-α or IKK-β expression vectors (100, 200, or 400 ng). After 48 hours of the transfection, the cells were washed with ice-cold PBS and stained at room temperature for 10 minutes with 0.4% trypan blue (PBS solution). Then, the cells were washed twice with PBS, then fixed for 10 minutes in PBS containing 2.5% glutaraldehyde, 1 mM magnesium chloride, and 2 mM EGTA, and stained for 2 hours with Red-Gal (Research Organics) according to the method described in Bayon, Y. et al., Mol. Cell. Biol. 23: 1061-1074 (2003). Red-Gal was used as a marker for visualizing the transfected cells to evaluate the degree of apoptosis occurring in the transfectants. […] Results were indicated by an average of three independent transfections (each performed three times or more).
Potential effect(s) of IKK-α on p73-dependent biological functions such as the regulation of apoptosis was examined. […] After 48 hours of the transfection, the cells were subjected to double staining with trypan blue (nonviable cells) and Red-Gal (transfected cells), and the number of purple cells was scored.

B1: IKK-α: IKK-α protein, amino acid sequence SEQ ID NO: 24, expressed from plasmid; apoptosis enhancer (protein, listed as Homo sapiens)
chain: MERPPGLRPGAGGPWEMRERLGTGGFGNVCLYQHRELDLKIAIKSCRLELSTKNRERWCHEIQIMKKLNHANVVKACDVPEELNILIHDVPLLAMEYCSGGDLRKLLNKPENCCGLKESQILSLLSDIGSGIRYLHENKIIHRDLKPENIVLQDVGGKIIHKIIDLGYAKDVDQGSLCTSFVGTLQYLAPELFENKPYTATVDYWSFGTMVFECIAGYRPFLHHLQPFTWHEKIKKKDPKCIFACEEMSGEVRFSSHLPQPNSLCSLIVEPMENWLQLMLNWDPQQRGGPVDLTLKQPRCFVLMDHILNLKIVHILNMTSAKIISFLLPPDESLHSLQSRIERETGINTGSQELLSETGISLDPRKPASQCVLDGVRGCDSYMVYLFDKSKTVYEGPFASRSLSDCVNYIVQDSKIQLPIIQLRKVWAEAVHYVSGLKEDYSRLFQGQRAAMLSLLRYNANLTKMKNTLISASQQLKAKLEFFHKSIQLDLERYSEQMTYGISSEKMLKAWKEMEEKAIHYAEVGVIGYLEDQIMSLHAEIMELQKSPYGRRQGDLMESLEQRAIDLYKQLKHRPSDHSYSDSTEMVKIIVHTVQSQDRVLKELFGHLSKLLGCKQKIIDLLPKVEVALSNIKEADNTVMFMQGKRQKEIWHLLKIACTQSSARSLVGSSLEGAVTPQTSAWLPPTSAEHDHSLSCVVTPQDGETSAQMIEENLNCLGHLSTIIHEANEEQGNSMMNLDWSWLTE
number of cells undergoing p73α-dependent apoptosis: increased the number of cells undergoing apoptosis
